The chains are these.
B1: d subunit of Thermus thermophilus V/A-ATPase (natural protein, UniProt P74902 1-323, looked up)
chain: MADDFAYLNARVRVRRGTLLKESFFQEALDLSFADFLRLLSETVYGGELAGQGLPDVDRAVLRTQAKLVGDLPRLVTGEAREAVRLLLLRNDLHNLQALLRAKATGRPFEEVLLLPGTLREEVWRQAYEAQDPAGMAQVLAVPGHPLARALRAVLRETQDLARVEALLAKRFFEDVAKAAKGLDQPALRDYLALEVDAENLRTAFKLQGSGLAPDAFFLKGGRFVDRVRFARLMEGDYAVLDELSGTPFSGLSGVRDLKALERGLRCVLLKEAKKGVQDPLGVGLVLAYVKEREWEAVRLRLLARRAYFGLPRAQVEEEVVCP

What all share (test): cryo-EM structure
Assay [1] has as its target c subunit of Thermus thermophilus V/A-ATPase, His3-tagged (Thermus thermophilus) (UniProt Q5SIT7).
Assay [2] has the same target. The source holds these as a separate data set.
For assay [3], the target named is T1, a subunit of Thermus thermophilus V/A-ATPase (Thermus thermophilus, UniProt Q5SIT6 1-652).
T1 sequence (looked up): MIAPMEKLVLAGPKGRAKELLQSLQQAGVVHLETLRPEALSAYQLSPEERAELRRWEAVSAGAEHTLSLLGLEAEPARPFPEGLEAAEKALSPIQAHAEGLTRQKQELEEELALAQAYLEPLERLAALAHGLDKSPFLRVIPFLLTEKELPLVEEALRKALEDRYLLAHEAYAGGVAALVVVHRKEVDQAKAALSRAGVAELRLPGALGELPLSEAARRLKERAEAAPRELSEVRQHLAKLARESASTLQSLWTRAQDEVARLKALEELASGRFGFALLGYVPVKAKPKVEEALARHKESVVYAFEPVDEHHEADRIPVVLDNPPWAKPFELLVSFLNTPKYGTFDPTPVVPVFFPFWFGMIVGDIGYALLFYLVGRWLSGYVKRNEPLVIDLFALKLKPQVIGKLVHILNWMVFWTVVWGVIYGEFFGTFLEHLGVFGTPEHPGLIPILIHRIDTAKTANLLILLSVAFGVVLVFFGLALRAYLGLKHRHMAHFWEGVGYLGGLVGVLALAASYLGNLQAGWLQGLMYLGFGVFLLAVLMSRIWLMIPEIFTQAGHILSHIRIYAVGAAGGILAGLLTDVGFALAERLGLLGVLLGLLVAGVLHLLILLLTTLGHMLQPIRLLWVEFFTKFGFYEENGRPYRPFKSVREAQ

Assay [4] concerns the target B1.

Where two headings read alike, the source gives them in different places.

For orientation: stoichiometry N means a count of units in the complex or per binding partner.

As to “c subunit of Thermus thermophilus V/A-ATPase, His3-tagged (from UniProt Q5SIT7 1-99) (natural protein)”, the stoichiometry N in assay [1] and in assay [2] was 12 in each case.

Regarding B1, the binding result in assay [3] was “binds”.

B2: D subunit of Thermus thermophilus V/A-ATPase (natural protein, UniProt O87880 1-223, looked up)
chain: MSQVSPTRMNLLQRRGQLRLAQKGVDLLKKKRDALVAEFFGLVREAMEARKALDQAAKEAYAALLLAQAFDGPEVVAGAALGVPPLEGVEAEVENVWGSKVPRLKATFPDGALLSPVGTPAYTLEASRAFRRYAEALIRVANTETRLKKIGEEIKKTTRRVNALEQVVIPGIRAQIRFIQQVLEQREREDTFRLKRIKGKIEAREAEEEGGRPNPQVEIGAGL
Regarding B2, the binding result in assay [4] is on record as “binds”.

Values taken from article doi:10.1101/2020.02.13.946640 (bioRxiv, 2020).
